According to patent US20150299259A1 (FORSCHUNGSZENTRUM JUELICH, published 2015):
Where no end group is shown, it is not given here. [ ]: non-standard residue; d: D form.

T1: PHF-6 (6-mer tau fragment 306VQIVYK311)
T1 construct: Used as fibrillary (aggregated) material; The mirror image selections used its synthetic D-enantiomer (D-PHF-6); also called L-PHF-6; aggregated tau partial peptide
T1 peptide: VQIVYK

B1: peptide having the sequence TTSLQMRLYYPP (peptide)
peptide: TTSLQMRLYYPP
modifications: not fully specified
notes: L-peptide selected by regular phage display against L-PHF-6; also called TL28

What was measured:
[1] = molecular target: full-length tau protein (441 amino acids) (UniProt P10636-8 1-441, limits assumed); assay: cell-based or functional assay
full-length tau protein (441 amino acids), sequence (P10636 other isoform, or with tags, fused parts or gaps limits assumed): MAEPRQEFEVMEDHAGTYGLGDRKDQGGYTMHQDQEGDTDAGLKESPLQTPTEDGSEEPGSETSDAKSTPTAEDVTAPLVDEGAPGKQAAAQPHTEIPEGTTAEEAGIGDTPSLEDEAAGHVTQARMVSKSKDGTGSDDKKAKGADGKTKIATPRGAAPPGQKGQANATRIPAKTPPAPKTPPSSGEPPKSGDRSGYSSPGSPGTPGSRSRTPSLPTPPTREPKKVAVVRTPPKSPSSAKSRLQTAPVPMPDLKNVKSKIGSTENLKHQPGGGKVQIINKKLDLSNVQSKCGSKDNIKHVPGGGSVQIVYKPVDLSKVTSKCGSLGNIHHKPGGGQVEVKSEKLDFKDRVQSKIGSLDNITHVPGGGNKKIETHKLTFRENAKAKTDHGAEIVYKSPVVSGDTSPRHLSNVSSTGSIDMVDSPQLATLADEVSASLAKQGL

[2] = molecular target: T1, PHF-6 (6-mer tau fragment 306VQIVYK311); assay: regular phage display and single-phage ELISA on L-PHF-6 fibrils
Experimental: A phage display kit made by Biolabs was used for the following selections. At the same time, a regular phage display was carried out for the selection of L-peptides. In this regard, obtaining binding motifs after database searches allows conclusions to be drawn concerning previously unknown binding partners in vivo. Moreover, binding partners can later be tested as D-peptides or retro-inverso peptides. After selection, enriched phages were isolated and single-phage ELISA assays were carried out. […] The D-peptides Apt and Knt stem from selections against […]. Against L-PHF-6, a peptide having the sequence […] was selected, which we also analyzed in D-enantiomeric form (TD28) and as a retro-inverso peptide (TD28ri).

Binder | DLS particle size Day 1 (Tau + AA + peptide, 1:10) [1] | DLS particle size Day 8 (Tau + AA + peptide, 1:10) [1] | binding result [2]
[dT][dL][dK][dI][dV][dW] [D-enantiomeric peptide tlkivw described by Sievers et al.] | 6 fold | 6 fold | 
B1 | 5 fold | 4 fold | binds
